Changes are numbered by the printed parent chain. Where two headings read alike, the source gives them in different places.
B1: NYC-0003 (scFv, not shown: small tags and cut ends)
scFv: EVQLLESGGGLVQPGGSLRLSCAASGFTFSTYQMSWVRQAPGKGLEWVSGIVSSGGSTAYADSVKGRFTISRDNSKNTLYLQMNSLRAEDTAVYYCAGELLPYYGMDVWGQGTTVTVSSGGGGSGGGGSGGGGSQSELTQPRSVSGSPGQSVTISCTGTSRDVGGYNYVSWYQQHPGKAPKLIIHDVIERSSGVPDRFSGSKSGNTASLTISGLQAEDEADYYCWSFAGSYYVFGTGTDVTVL
notes: also called 3M4E5 scFv; NYC-0003 tag adduct
B2: NYC-0004 (scFv, not shown: small tags and cut ends)
scFv: B1 scFv with S160E, S230G
notes: also called T1 scFv; NYC-0004 tag adduct
B3: NYA-0001 (scFv)
scFv: GEVQLVESGGGVVQPGRSLTPSCSASGFSIRSYDIHWVRQAPGKGLEWVATISYDGSQKYFADSVKGRFTIFRDESENMVYLQMSGLRVEDTAVYHCARGSSGHYEAFDIWGQGTMVTVSSGGGGSGGGGSGGGGSQSVLTQPPSVSAAPGQKVTISCSGSSSNIGNNYVSWYQQLPGTAPKLLIYDNNKRPSGIPDRFSGSKSGTSATLGITGLQTGDEADYYCGTWDSSLSAPWVFGGGTKVTVLGAAAGAGGDYKDDDDKGAAAHHHHHH
notes: also called NYA-0001 tag adduct; NY-R119 expressed in a cultured mammalian cell
B4: NYA-1143 (scFv)
scFv: B3 scFv with Q40L, N168W
B5: NYA-2023 (scFv)
scFv: B3 scFv with N168W
B6: NYA-2035 (scFv)
scFv: B3 scFv with Q40L, N168W, Y169K
B7: NYA-2027 (scFv)
scFv: B3 scFv with T227S
B8: NYA-1163 (scFv)
scFv: B3 scFv with Q40L
B9: NYA-2143 (scFv)
scFv: B3 scFv with Q40L, N168W, Q175R
B10: NYA-1154 (scFv)
scFv: B3 scFv with I35M, G103N, Q175R, T227A

Columns and labels:
[1] = biological target: T1, HLA-A2 / homologous peptide P2RY8 complex on T2 cells (human); test: flow cytometry on peptide-pulsed T2 cells, scFv 100 nM;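 also: scFv binding read as gMFI and normalized to the level of HLA/peptide complex displayed on T2 cells, with homologous 9-mer peptides used to probe specificity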
T1 construct: whole, on cells; also called T2 cells supplemented with homologous peptide P2RY8
Protocol: (§1) The cells were washed 2 times in PBS containing 5% FBS, immobilized with Mildform 10 N (FUJIFILM Wako Pure Chemical Corporation) overnight, and resuspended in PBS containing 5% FBS. The cell suspensions were subjected to detection using a flow cytometer (CantoII, Becton Dickinson). […] The standardized gMFI indicating the binding affinity of each scFv standardized with the amount of the HLA/peptide complex on the T2 cells was determined in accordance with the following equation.
(§2) The 9-mer peptide shown in FIG. 2A was selected as a homologous peptide for evaluation of binding specificity of anti-HLA/NY-ESO scFv. […] The standardized gMFI indicating the binding affinity of each scFv standardized with the amount of the HLA/peptide complex on the T2 cells was determined in accordance with the following equation.

[2] = biological target: T2, HLA-A2 / homologous peptide PRKD2 complex on T2 cells (human); test: as above
T2 construct: whole, on cells; also called T2 cells supplemented with homologous peptide PRKD2
Protocol: as §1, §2

[3] = biological target: T3, HLA-A2 / homologous peptide CD163 complex on T2 cells (human); test: as above
T3 construct: whole, on cells; also called T2 cells supplemented with homologous peptide CD163
Protocol: as §1, §2

gp100 [4] = biological target: T4, gp100 (human); test: as above
T4 construct: cell surface;cell surface complex; also called HLA-A2 / gp100 peptide complex on T2 cells
Protocol: as §1, §2

[5] = biological target: T5, HLA-A2 / homologous peptide IL20RB complex on T2 cells (human); test: as above
T5 construct: whole, on cells; also called T2 cells supplemented with homologous peptide IL20RB
Protocol: as §1, §2

[6] = biological target: T6, HLA-A2 / homologous peptide DOLPP1 complex on T2 cells (human); test: as above
T6 construct: whole, on cells; also called T2 cells supplemented with homologous peptide DOLPP1
Protocol: as §1, §2

[7] = biological target: T7, HLA-A2/NY-ESO peptide complex presented on cells (human); test: as above
T7 construct: whole, on cells; also called HLA/NY-ESO; T2 cells supplemented with the NY-ESO peptide
Protocol: as §1, §2

[8] = biological target: T8, HLA-A*0201/β2-microglobulin/NY-ESO peptide complex (human, biotinylated with E. coli biotin ligase at the added recognition sequence (biotinylated form used in the ELISA)); test: SPR (Biacore T200), scFv captured by anti-His antibody, HLA/NY-ESO as analyte, single cycle kinetics
T8 construct: also called HLA/NY-ESO; HLA-A2/NY-ESO
Protocol: With the use of Biacore T200, anti-HLA/NY-ESO scFv was captured as a ligand by the immobilized anti-His antibody, and the antigen was assayed as an analyte. As the antigen, HLA/NY-ESO prepared in 1)-1 was used. The anti-His antibody (His Capture kit, GE Healthcare) was immobilized on Sensor Chip CM5 (GE Healthcare) in accordance with the instructions of the kit. The anti-HLA/NY-ESO scFv constructs diluted to 0.5 μg/ml in HBS-EP+ (GE Healthcare) to be evaluated were brought into contact therewith at 10 μl/min for 60 seconds for immobilization. Thereafter, the samples were added to the HLA/NY-ESO analytes diluted to various levels with HBS-EP+ at a flow rate of 30 μl/min for 120 seconds and dissociation was assayed for 600 seconds.

gp100 [9] = biological target: T4, gp100; test: flow cytometry on peptide-pulsed T2 cells, scFv 100 nM; remark: listed apart in the source;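 as to result: scFv binding read as gMFI and normalized to the level of HLA/peptide complex displayed on T2 cells, with homologous 9-mer peptides used to probe specificity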
[10] = biological target: T7, HLA-A2/NY-ESO peptide complex presented …; test: as above; remark: listed apart in the source
[11] = biological target: T1, HLA-A2 / homologous peptide P2RY8 …; test: flow cytometry, peptide-pulsed T2 cells
[12] = biological target: T2, HLA-A2 / homologous peptide PRKD2 …; test: flow cytometry, peptide-pulsed T2 cells
[13] = biological target: T3, HLA-A2 / homologous peptide CD163 …; test: flow cytometry, peptide-pulsed T2 cells
[14] = biological target: T5, HLA-A2 / homologous peptide IL20RB …; test: flow cytometry, peptide-pulsed T2 cells
[15] = biological target: T6, HLA-A2 / homologous peptide DOLPP1 …; test: flow cytometry, peptide-pulsed T2 cells

Row | Binder | standardized gMFI [1] | standardized gMFI [2] | standardized gMFI [3] | standardized gMFI (gp100 [4]) | standardized gMFI [5] | standardized gMFI [6] | standardized gMFI [7] | Kd [8] [nM] | standardized gMFI (gp100 [9]) | standardized gMFI [10] | binding result [11] | binding result [12] | binding result [13] | binding result [14] | binding result [15] | binding result [1] | binding result [3] | binding result [5] | binding result [6]
1 | B1 | 2.01 | 1.53 | 1.08 | 0.32 | 0.43 | 0.38 | 5.22 | 8.1 | 0.39 | 3.74 |  |  |  |  |  |  |  |  | 
2 | B2 | 1.98 | 3.41 | 0.49 | 0.32 | 0.43 | 0.39 | 9.19 | 2.8 | 0.37 | 6.02 |  |  |  |  |  |  |  |  | 
3 | B3 | 0.73 | 0.33 | 0.48 | 0.31 | 0.42 | 0.37 | 5.12 | 33.8 | 0.43 | 5.75 | no binding (tested: 100 nM) | no binding (tested: 100 nM) | no binding (tested: 100 nM) | no binding (tested: 100 nM) | no binding (tested: 100 nM) |  |  |  | 
4 | B4 | 0.69 | 0.32 | 0.46 | 0.3 | 0.42 | 0.37 | 13.4 | 1 | 0.41 | 12.9 | no binding (tested: 100 nM) | no binding (tested: 100 nM) | no binding (tested: 100 nM) | no binding (tested: 100 nM) | no binding (tested: 100 nM) |  |  |  | 
5 | B5 | 0.7 | 0.42 | 0.48 | 0.3 | 0.42 | 0.42 | 10.1 | 2.4 | 0.4 | 8.85 | no binding (tested: 100 nM) | no binding (tested: 100 nM) | no binding (tested: 100 nM) | no binding (tested: 100 nM) | no binding (tested: 100 nM) |  |  |  | 
6 | B6 | 0.69 | 0.33 | 0.48 | 0.29 | 0.41 | 0.38 | 11.1 | 3.2 | 0.38 | 9.94 | no binding (tested: 100 nM) | no binding (tested: 100 nM) | no binding (tested: 100 nM) | no binding (tested: 100 nM) | no binding (tested: 100 nM) |  |  |  | 
7 | B7 | 0.7 | 0.32 | 0.51 | 0.31 | 0.42 | 0.39 | 7.25 | 11.2 | 0.41 | 5.75 | no binding (tested: 100 nM) | no binding (tested: 100 nM) | no binding (tested: 100 nM) | no binding (tested: 100 nM) | no binding (tested: 100 nM) |  |  |  | 
8 | B8 | 0.69 | 0.31 | 0.46 | 0.3 | 0.41 | 0.36 | 4.21 | 13 | 0.44 | 3.67 | no binding (tested: 100 nM) | no binding (tested: 100 nM) | no binding (tested: 100 nM) | no binding (tested: 100 nM) | no binding (tested: 100 nM) |  |  |  | 
9 | B9 | 0.69 | 0.32 | 0.46 | 0.31 | 0.42 | 0.38 | 13.5 | 0.9 | 0.38 | 13.1 | no binding (tested: 100 nM) | no binding (tested: 100 nM) | no binding (tested: 100 nM) | no binding (tested: 100 nM) | no binding (tested: 100 nM) |  |  |  | 
10 | B10 | 0.65 | 2.72 | 0.54 | 0.31 | 0.51 | 0.46 | 13.8 |  | 0.46 | 9.98 |  |  |  |  |  | no binding (tested: 100 nM) | no binding (tested: 100 nM) | no binding (tested: 100 nM) | no binding (tested: 100 nM)

— patent publication US20230348616A1 (MIE UNIVERSITY, published 2023)
